Earlier results as cited in publication PMC5302535.

Target: transferrin receptor (TfR) (Homo sapiens) (UniProt P02786)
Sequence (P02786 89-760): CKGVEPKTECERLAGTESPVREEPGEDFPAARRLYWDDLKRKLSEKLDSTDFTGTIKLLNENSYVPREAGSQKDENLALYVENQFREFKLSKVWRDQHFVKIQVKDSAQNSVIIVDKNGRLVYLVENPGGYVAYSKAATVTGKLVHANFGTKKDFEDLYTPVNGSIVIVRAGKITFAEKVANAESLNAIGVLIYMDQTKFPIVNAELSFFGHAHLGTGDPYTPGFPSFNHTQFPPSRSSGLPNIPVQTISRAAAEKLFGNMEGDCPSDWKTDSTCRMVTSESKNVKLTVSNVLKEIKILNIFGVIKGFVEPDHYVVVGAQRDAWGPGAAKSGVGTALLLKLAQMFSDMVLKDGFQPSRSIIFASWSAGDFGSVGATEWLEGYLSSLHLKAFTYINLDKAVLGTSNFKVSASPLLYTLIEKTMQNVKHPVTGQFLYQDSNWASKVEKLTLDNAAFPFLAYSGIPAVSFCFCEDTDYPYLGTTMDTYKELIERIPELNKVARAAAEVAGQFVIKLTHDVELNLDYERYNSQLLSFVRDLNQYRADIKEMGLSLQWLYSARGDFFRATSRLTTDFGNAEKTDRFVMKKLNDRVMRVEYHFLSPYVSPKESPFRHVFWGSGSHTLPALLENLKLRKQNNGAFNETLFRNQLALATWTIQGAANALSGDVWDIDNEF

In the case of T7 peptide, the Kd is given as 0.01 µM.
